# Experimental data: patent US20220048967A1 (published 2022)
# Numbered stars: 1 amine (or outer) side, 2 acyl side, 3 side chain; on linkers, the order of the positions; unused ones are H or OH. Square brackets hold non-standard residues; d marks the D form. Side chains are listed from the residue outwards. Ends that are not written are not given here. * marks the point of attachment. C20 diacid = O=C(O)CCCCCCCCCCCCCCCCCCC(=O)*; γGlu = O=C(O)[C@H](CCC(=O)[*:2])N[*:1]; Desaminohistidyl = O=C(CCc1c[nH]cn1)*; αMeF = C[C@](N)(Cc1ccccc1)C(=O)O; AEEA = NCCOCCOCC(=O)O; Aib = CC(C)(N)C(=O)O
# T1: human GIP receptor (human, UniProt P48546 22-466)
# T1 sequence (looked up): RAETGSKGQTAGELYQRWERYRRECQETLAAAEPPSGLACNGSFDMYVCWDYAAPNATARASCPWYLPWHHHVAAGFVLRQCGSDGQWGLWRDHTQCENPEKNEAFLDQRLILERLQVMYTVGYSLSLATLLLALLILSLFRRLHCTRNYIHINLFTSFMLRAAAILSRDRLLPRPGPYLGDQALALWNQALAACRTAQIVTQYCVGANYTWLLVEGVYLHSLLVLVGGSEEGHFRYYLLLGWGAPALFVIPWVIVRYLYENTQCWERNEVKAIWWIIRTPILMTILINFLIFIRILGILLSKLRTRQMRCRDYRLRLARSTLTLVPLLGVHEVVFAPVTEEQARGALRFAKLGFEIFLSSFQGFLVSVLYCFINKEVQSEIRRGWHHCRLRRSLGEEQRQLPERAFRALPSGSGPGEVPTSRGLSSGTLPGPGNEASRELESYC
# Columns and labels:
# [1] = biological target: human GLP-1 receptor (human, UniProt P43220 24-463); assay: cell-based or functional assay
# [2] = biological target: T1, human GIP receptor; assay: cell-based or functional assay
Binder,hGLP1R cAMP EC50 ratio [1],hGLP1R cAMP Rel EC50 [1] [nM],hGIPR cAMP EC50 ratio [2],hGIPR cAMP Rel EC50 [2] [nM]
Y[Aib]EGTFTSDYSILLDSK([AEEA-AEEA-γGlu-C20 diacid])AQ[Aib]AFIEYLIEGGPSSGAPPPS-NH2 (N-terminus assumed; SMILES CC[C@H](C)[C@H](NC(=O)[C@H](CC(C)C)NC(=O)[C@H](Cc1ccc(O)cc1)NC(=O)[C@H](CCC(=O)O)NC(=O)[C@@H](NC(=O)[C@H](Cc1ccccc1)NC(=O)[C@H](C)NC(=O)C(C)(C)NC(=O)[C@H](CCC(N)=O)NC(=O)[C@H](C)NC(=O)[C@H](CCCCNC(=O)COCCOCCNC(=O)COCCOCCNC(=O)CC[C@H](NC(=O)CCCCCCCCCCCCCCCCCCC(=O)O)C(=O)O)NC(=O)[C@H](CO)NC(=O)[C@H](CC(=O)O)NC(=O)[C@H](CC(C)C)NC(=O)[C@H](CC(C)C)NC(=O)[C@@H](NC(=O)[C@H](CO)NC(=O)[C@H](Cc1ccc(O)cc1)NC(=O)[C@H](CC(=O)O)NC(=O)[C@H](CO)NC(=O)[C@@H](NC(=O)[C@H](Cc1ccccc1)NC(=O)[C@@H](NC(=O)CNC(=O)[C@H](CCC(=O)O)NC(=O)C(C)(C)NC(=O)[C@@H](N)Cc1ccc(O)cc1)[C@@H](C)O)[C@@H](C)O)[C@@H](C)CC)[C@@H](C)CC)C(=O)N[C@@H](CCC(=O)O)C(=O)NCC(=O)NCC(=O)N1CCC[C@H]1C(=O)N[C@@H](CO)C(=O)N[C@@H](CO)C(=O)NCC(=O)N[C@@H](C)C(=O)N1CCC[C@H]1C(=O)N1CCC[C@H]1C(=O)N1CCC[C@H]1C(=O)N[C@@H](CO)C(N)=O) [Example 9],0.314,0.194,0.768,0.21
Y[Aib]EGTFTSDYSILLDKK([AEEA-AEEA-γGlu-C20 diacid])AQ[Aib]AFIEYLLEGGPSSGAPPPS-NH2 (N-terminus assumed; SMILES CC[C@H](C)[C@H](NC(=O)[C@H](Cc1ccccc1)NC(=O)[C@H](C)NC(=O)C(C)(C)NC(=O)[C@H](CCC(N)=O)NC(=O)[C@H](C)NC(=O)[C@H](CCCCNC(=O)COCCOCCNC(=O)COCCOCCNC(=O)CC[C@H](NC(=O)CCCCCCCCCCCCCCCCCCC(=O)O)C(=O)O)NC(=O)[C@H](CCCCN)NC(=O)[C@H](CC(=O)O)NC(=O)[C@H](CC(C)C)NC(=O)[C@H](CC(C)C)NC(=O)[C@@H](NC(=O)[C@H](CO)NC(=O)[C@H](Cc1ccc(O)cc1)NC(=O)[C@H](CC(=O)O)NC(=O)[C@H](CO)NC(=O)[C@@H](NC(=O)[C@H](Cc1ccccc1)NC(=O)[C@@H](NC(=O)CNC(=O)[C@H](CCC(=O)O)NC(=O)C(C)(C)NC(=O)[C@@H](N)Cc1ccc(O)cc1)[C@@H](C)O)[C@@H](C)O)[C@@H](C)CC)C(=O)N[C@@H](CCC(=O)O)C(=O)N[C@@H](Cc1ccc(O)cc1)C(=O)N[C@@H](CC(C)C)C(=O)N[C@@H](CC(C)C)C(=O)N[C@@H](CCC(=O)O)C(=O)NCC(=O)NCC(=O)N1CCC[C@H]1C(=O)N[C@@H](CO)C(=O)N[C@@H](CO)C(=O)NCC(=O)N[C@@H](C)C(=O)N1CCC[C@H]1C(=O)N1CCC[C@H]1C(=O)N1CCC[C@H]1C(=O)N[C@@H](CO)C(N)=O) [Example 6],0.185,0.374,2.09,0.0899
Y[Aib]EGTFTSDYSILLDSK([AEEA-AEEA-γGlu-C20 diacid])AQ[Aib]AFIEYLLEGGPSSGAPPPS-NH2 (N-terminus assumed; SMILES CC[C@H](C)[C@H](NC(=O)[C@H](Cc1ccccc1)NC(=O)[C@H](C)NC(=O)C(C)(C)NC(=O)[C@H](CCC(N)=O)NC(=O)[C@H](C)NC(=O)[C@H](CCCCNC(=O)COCCOCCNC(=O)COCCOCCNC(=O)CC[C@H](NC(=O)CCCCCCCCCCCCCCCCCCC(=O)O)C(=O)O)NC(=O)[C@H](CO)NC(=O)[C@H](CC(=O)O)NC(=O)[C@H](CC(C)C)NC(=O)[C@H](CC(C)C)NC(=O)[C@@H](NC(=O)[C@H](CO)NC(=O)[C@H](Cc1ccc(O)cc1)NC(=O)[C@H](CC(=O)O)NC(=O)[C@H](CO)NC(=O)[C@@H](NC(=O)[C@H](Cc1ccccc1)NC(=O)[C@@H](NC(=O)CNC(=O)[C@H](CCC(=O)O)NC(=O)C(C)(C)NC(=O)[C@@H](N)Cc1ccc(O)cc1)[C@@H](C)O)[C@@H](C)O)[C@@H](C)CC)C(=O)N[C@@H](CCC(=O)O)C(=O)N[C@@H](Cc1ccc(O)cc1)C(=O)N[C@@H](CC(C)C)C(=O)N[C@@H](CC(C)C)C(=O)N[C@@H](CCC(=O)O)C(=O)NCC(=O)NCC(=O)N1CCC[C@H]1C(=O)N[C@@H](CO)C(=O)N[C@@H](CO)C(=O)NCC(=O)N[C@@H](C)C(=O)N1CCC[C@H]1C(=O)N1CCC[C@H]1C(=O)N1CCC[C@H]1C(=O)N[C@@H](CO)C(N)=O) [Example 7],0.13,0.47,0.317,0.461
[Desaminohistidyl][Aib]EGTFTSDYSILLDKK([AEEA-AEEA-γGlu-C20 diacid])AQ[Aib]AFIEYLIEGGPSSGAPPPS-NH2 [Example 106],1.42,0.0413,0.0302,6.54
[Desaminohistidyl][Aib]EGTFTSDYSILLDKK([AEEA-AEEA-γGlu-C20 diacid])AQ[Aib]AFIEYLIEGGPSSGAPPPS-NH2 (also: ψ[NHCO] bond between DesHis1 and Aib2) [Example 105],1.51,0.0401,0.101,1.85
XXEGTFTSDYSILLDKKAQXAFIEYLIEGGPSSGAPPPS (DesTyr1; Aib2; K17((2-[2-(2-Amino-ethoxy)-ethoxy]-acetyl)2-(γ-Glu)-CO-(CH2)18-CO2H); Aib20; C-terminal NH2) [Example 107],1.1,0.0539,0.747,0.241
YXEGTFTSDYSILLDKKAQXAFIEYLIEGGPSSGAPPPS (Aib2; K17((2-[2-(2-Amino-ethoxy)-ethoxy]-acetyl)2-(ϵK)-CO-(CH2)18-CO2H); Aib20; C-terminal NH2) [Example 113],,0.233,,0.166
YXEGTFTSDYSILLDKKAQXAFIEYLIEGGPSSGAPPPS (Aib2; K17((2-[2-(2-Amino-ethoxy)-ethoxy]-acetyl)-(ϵK)-(γ-Glu)-CO-(CH2)18-CO2H); Aib20; C-terminal NH2) [Example 112],,0.16,,0.124
YXEGTFTSDYSILLDKKAQXAFIEYLIEGGPSSGAPPPS (Aib2; K17((2-[2-(2-Amino-ethoxy)-ethoxy]-acetyl)2-(γ-Glu)-CO-(CH2)18-CO2H); Aib20; C-terminal NH2) [Example 8],,0.148,,0.0848
YXEGTFTSDYSILLDKKAQXAFIEYLIEGGPSSGAPPPS (Aib2; K17((2-[2-(2-Amino-ethoxy)-ethoxy]-acetyl)-(γ-Glu)-(Trx)-CO-(CH2)18-CO2H); Aib20; C-terminal NH2) [Example 110],,0.179,,0.218
Y[Aib]EGT[αMeF]TSDYSI[Aib]LDEK([AEEA-AEEA-γGlu-C20 diacid])AQ[Aib]AFIEYLIEGGPSSGAPPPS-NH2 (N-terminus assumed; SMILES CC[C@H](C)[C@H](NC(=O)[C@H](CC(C)C)NC(=O)[C@H](Cc1ccc(O)cc1)NC(=O)[C@H](CCC(=O)O)NC(=O)[C@@H](NC(=O)[C@H](Cc1ccccc1)NC(=O)[C@H](C)NC(=O)C(C)(C)NC(=O)[C@H](CCC(N)=O)NC(=O)[C@H](C)NC(=O)[C@H](CCCCNC(=O)COCCOCCNC(=O)COCCOCCNC(=O)CC[C@H](NC(=O)CCCCCCCCCCCCCCCCCCC(=O)O)C(=O)O)NC(=O)[C@H](CCC(=O)O)NC(=O)[C@H](CC(=O)O)NC(=O)[C@H](CC(C)C)NC(=O)C(C)(C)NC(=O)[C@@H](NC(=O)[C@H](CO)NC(=O)[C@H](Cc1ccc(O)cc1)NC(=O)[C@H](CC(=O)O)NC(=O)[C@H](CO)NC(=O)[C@@H](NC(=O)[C@](C)(Cc1ccccc1)NC(=O)[C@@H](NC(=O)CNC(=O)[C@H](CCC(=O)O)NC(=O)C(C)(C)NC(=O)[C@@H](N)Cc1ccc(O)cc1)[C@@H](C)O)[C@@H](C)O)[C@@H](C)CC)[C@@H](C)CC)C(=O)N[C@@H](CCC(=O)O)C(=O)NCC(=O)NCC(=O)N1CCC[C@H]1C(=O)N[C@@H](CO)C(=O)N[C@@H](CO)C(=O)NCC(=O)N[C@@H](C)C(=O)N1CCC[C@H]1C(=O)N1CCC[C@H]1C(=O)N1CCC[C@H]1C(=O)N[C@@H](CO)C(N)=O) [Example 117],0.998,0.0615,2.44,0.0648
